Experiments:
[1] = system: Corynebacterium glutamicum ATCC21851; test: Cysteine production by fermentation using corynebacteria with pWST1-cysE plasmids; type: cell-based; details: allele on pWST1 plasmid; compared with cysEIV, cysEX, cysEXIV
From the text: The feedback-resistant cysE alleles, cysEIV, cysEX, cysEXI and cysEXIV (cf. Tab. 2 in Example 1), were cleaved out of their corresponding plasmids using the restriction enzymes BamHI and EcoRI (from Boehringer Mannheim) and each respective 1.15 kb-sized DNA fragment was purified through an agarose gel and isolated. The respective DNA fragment was rendered blunt-ended using the Klenow fragment of E. coli DNA polymerase I (from Boehringer Mannheim). The vector pWST1 was hydrolyzed with the restriction enzyme Smal (from Boehringer Mannheim) and ligated to the blunt-ended DNA fragment using T4 DNA ligase. The vector pWST1 is an E. coli/Corynebacterium shuttle vector and can replicate both in E. coli and in corynebacteria. The corynebacterial replicon of this vector originates from the Corynebacterium glutamicum strain ATCC 19223. The preparation of vector pWST1 is described in U.S. Pat. No. 4,965,197. The ligation mixture was used to transform the mutant JM15, which is auxotrophic for cysteine. The complementing plasmids were designated pWST1-cysEIV, pWST1-cysEX, pWST1-cysEXI and pWST1-cysEXIV in accordance with their inserted cysE alleles.
The pWST1-cysE plasmids were used to transform the Corynebacterium glutamicum ATCC21851. The transformation was carried out by electroporation using the technique described in detail in Liebl, W. et al., 1989, FEMS Microbiol. Letters, 65, 299-304. […]

JM15attλ::cysE strains = test: Cysteine production in 1 L fermenter, chromosomally encoded cysE alleles; type: cell-based, E. coli; details: single chromosomal copy
Protocol: For the purpose of being integrated into the chromosomal attachment site (attλ), the cysE alleles cysEIV, cysEX and cysEXI were cloned into the plasmid pRS551 (Simons et al., 1987, Gene 53: 85-96). For this, each cysE allele was amplified by PCR from the corresponding cysE plasmid. The oligonucleotides which were used, i.e. cysE-fwl and cysE-revl, are described in Example 1. The amplification was carried out as described in Example 3. The resulting fragments were cleaved with EcoRI/BamHI, purified through an agarose gel and ligated into vector pRS551 which had been cleaved with EcoRI and BamHI. This afforded the vector pRS551-based recombinant plasmids pRScysEIV, X and XI.
A heterogeneous lambda lysate, which contained recombinant cysE allele-carrying λRS45 derivatives in addition to λRS45 phages, was produced in vivo by homologous recombination by means of preparing a plate lysate on a pRScysE-carrying recA^+ strain (e.g. YMC9, ATCC 3397) using the λRS45 phage (Simons et al., 1987, Gene 53: 85-96).
The cysE strain JM15, which was infected with the heterogeneous lambda lysate and subsequently plated on kanamycin-containing (25 mg/L) LB plates, was used for selecting for the recombinant RS45 derivatives. The lysogenic, kanamycin-resistant clones which were obtained were then tested for their ability to grow on minimal medium plates without cysteine. A clone which was in each case cysteine-prototrophic was selected and used for preparing a homogeneous cysE λ lysate (by means of UV induction, Simons et al., 1987, Gene 53: 85-96).
The JM15 stain was infected with these homogeneous cysE λ lysates which were obtained in each case. The resulting JM15attλ::cysE strains were cultured as described in Example 6. Instead of tetracycline, the respective media in each case contained 25 mg of kanamycin per L as the selection agent.

serine acetyltransferase = test: Serine acetyltransferase enzyme activity test with and without L-cysteine (inhibitor constant Ki, specific activity); type: biochemical, E. coli; details: for Ki: inhibitor L-cysteine
Outline: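 Spectrophotometric test with L-serine and acetyl-CoA, reaction started by enzyme, following absorbance decrease at 232 nm from thioester cleavage. Activity measured with and without varying L-cysteine to derive Ki; enzyme from S30 extracts (30,000 g, 4° C, 20 min) of E. coli strains.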

B1: cysEXI: double mutant Thr167->Ala167, Gly245->Ser245 (protein, UniProt P0A9D4 1-273, looked up, variant T167A G245S)
Serine acetyltransferase: MSCEELEIVWNNIKAEARTLADCEPMLASFYHATLLKHENLGSALSYMLANKLSSPIMPAIAIREVVEEAYAADPEMIASAACDIQAVRTRDPAVDKYSTPLLYLKGFHALQAYRIGHWLWNQGRRALAIFLQNQVSVTFQVDIHPAAKIGRGIMLDHATGIVVGEAAVIENDVSILQSVTLGGTGKSGGDRHPKIREGVMIGAGAKILGNIEVGRGAKIGAGSVVLQPVPPHTTAAGVPARIVSKPDSDKPSMDMDQHFNGINHTFEYGDGI
cysteine yields [1]: highest cysteine yields
yields of cysteine (JM15attλ::cysE strains): 2.1 g/L
Ki (serine acetyltransferase; Table 1a, 1 mM L-serine, 0.1 mM acetyl-CoA): 700 µM
spec. act. (serine acetyltransferase; Table 1a, serine acetyltransferase activity): 0.117 µmol/min/mg
Ki (serine acetyltransferase; Table 2, alleles from chemical mutagenesis): 700 µM
